Columns and labels:
[1] = target: T1, HLA-A2 molecules on T2 cells (human); test: T2 cell HLA-A2 upregulation assay, flow cytometry, peptide 25 µg/ml
T1 construct: whole, on cells; MHC class I molecule on the cell surface; also called HLA-A2.1
Description: (§1) The primary amino acid sequence of human PAGE4 was analyzed for consensus motifs for novel HLA-A2 binding peptides. Two 10-mer peptides (P16-25 designated as P16 and P59-68 designated as P59) and one 9-mer peptide (P84-92 designated as P84) were identified and evaluated (Table 1). […] For this reason, five different analogues of native peptides were synthesized and were investigated for their binding ability to HLA-A2-positive T2 cells along with the native P16, P59 and P84 peptides. A MUC-1 peptide and a CEA HLA-A3 binding peptide (CAP-7) were used as a positive and negative control, respectively (Tsang et al., J Natl Cancer Inst 1995; 87:982-90).
Peptides were used at a concentration of 25 μg/ml. Amino acids are shown by the single-letter code. Substitution amino acids are indicated in bold italic and underlined. MUC-1 peptide is an HLA-A2 binding peptide and CAP-7 is an HLA-A3 binding CEA peptide. ^aResults are expressed in mean fluorescence intensity (MFI). Values in parentheses are fold increases as compared with the negative control.

[2] = target: T1, HLA-A2 molecules on T2 cells; test: T2 cells loaded overnight with 12.5 µg/ml peptide, washed, brefeldin A, surface HLA-A2 by flow cytometry (FIG. 1B)
Description: FIGS. 1A and 1B are line graphs showing the binding of native PAGE4 peptides and their agonist peptides to HLA-A2 molecules. Peptides were analyzed for binding to T2 cell line as described in Example 1. For the results presented in FIG. 1A, peptides were used at concentrations of 0 to 25 μg/ml. P16 peptide (◯), P16-1, P16-2 (▴), P84 (□) and P84-1 (▪), positive control (MUC-1 peptide) (+) and negative control (HLA-A3 binding peptide) (X). Results are expressed in mean fluorescence intensity (MFI). FIG. 1B presents a comparison of the stability of HLA-A2 peptide complexes of PAGE4 native and agonist peptides. T2 cells were incubated overnight with P16 peptide (◯), P16-1, P16-2 (▴), P84 (□) and P84-1 (▪) peptides at a concentration of 12.5 μg/ml and then were washed free of unbound peptide and incubated with brefeldin A to block delivery of new class 1 molecules to the cell surface. At the indicated times, cells were stained for the presence of surface peptide-HLA-A2 complexes. Results are expressed in relative percentage of binding compared with 100% at time 0.
The analogues of P16 were designated P16-1 and P16-2, and the analogue of P84 was designated as P84-1. These peptides bound to HLA-A2 at higher levels than their native peptides. Studies were then conducted to examine the ability of these peptides to bind HLA-A2 at various concentrations. […] Studies were then undertaken to examine the stability of the peptide-MHC complex for the peptides P16, P84, P16-1, P16-2 and P84-1. Each peptide was incubated with T2 cells overnight, the unbound peptides were washed off, and the cells were then incubated with Brefeldin A to block delivery of new class I molecules to the cell surface. Cells were analyzed for the presence of peptide-HLA-A2 complexes at various time points.

[3] = target: T1, HLA-A2 molecules on T2 cells; test: T2 cell HLA-A2 upregulation assay, flow cytometry
Description: as §1

Binder | T2 binding (MFI) [1] | fold increase as compared with the negative control [1] | percent of peptide-HLA-A2 complexes remaining over 8 hours [2] | binding result [3]
QEAPDVVAFV (Synthetic peptide, purity >95%; also called P16-25) [P16 (native) PAGE4 peptide, amino acids 16-25] | 309 MFI | 1.2 fold | – | –
YLAPDVVAFV (also called P16-2) [P16 (16Y/17L) PAGE4 agonist peptide] | 790 MFI | 3 fold | > 43.6% | –
QLAPDVVAFV [P16 (17L) PAGE4 agonist peptide] | 827 MFI | 3.2 fold | > 43.6% | –
VEGDCQEMDL (Synthetic peptide; also called P59-68) [P59 (native) PAGE4 peptide, amino acids 59-68] | 246 MFI | 0.9 fold | – | no binding (tested: 25 µg/ml)
VLGDCQEMDL (also called P59-1) [P59 (60L) PAGE4 analogue peptide] | 293 MFI | 1.1 fold | – | –
YLGDCQEMDV (also called P59-2) [P59 (59Y/60L/68V) PAGE4 analogue peptide] | 384 MFI | 1.5 fold | – | –
KTPPNPKHA (Synthetic peptide; also called P84-92) [P84 (native) PAGE4 peptide, amino acids 84-92] | 270 MFI | 1.04 fold | > 43.6% | –
YLPPNPKHV (also called P84-1) [P84 (84Y/85L/92V) PAGE4 agonist peptide] | 546 MFI | 2.1 fold | > 43.6% | –
ALWGQDVTSV (Positive control of the T2 assay; also called positive control) [MUC-1 peptide] | 710 MFI | 2.7 fold | – | –

From patent publication US20090035266A1 (US Dept. of Health and Human Services, published 2009)
